The source of these data is the supplement of paper PMC5998384.

In data set [1] the test system is HeLa Kyoto. Put plainly: solubility in G1/S (NP-40 vs SDS abundance) (log2 ratio); higher = more soluble. The following applies: cell cycle stage: G1/S.
Data set [2] concerns HeLa Kyoto. Nature of the data set: melting temperature (median over replicates), in situ; higher = more thermally stable.
Data set [3] concerns HeLa Kyoto. Nature of the data set: solubility change mitosis vs G1/S (difference of NP-40 vs SDS log2 ratios) (log2 ratio difference); higher = more soluble in mitosis.
Data set [4] relates to HeLa Kyoto. Put plainly: thermal stability score vs G1/S (z-score of summed log2 fold changes over temperatures); higher = more thermally stable than in G1/S.
Where [5] appears, read: cell cycle stage: early G1 (4.5 h after nocodazole release).
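Wherever melting temperature (median over replicates), in situ is given: HeLa Kyoto cells synchronized by double thymidine or nocodazole block, proteins quantified by TMT10plex mass spectrometry, three independent biological replicates.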
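Wherever solubility change mitosis vs G1/S (difference of NP-40 vs SDS log2 ratios) is given: synchronized HeLa Kyoto cells (double thymidine block for G1/S, nocodazole release for mitosis), protein amounts in NP-40 versus SDS lysates quantified by mass spectrometry, three biological replicates.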
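Wherever solubility in G1/S (NP-40 vs SDS abundance) is given: HeLa Kyoto cells arrested at G1/S by double thymidine block, proteins quantified by TMT10plex mass spectrometry in mild NP-40 versus SDS extracts, three biological replicates.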
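Wherever thermal stability score vs G1/S (z-score of summed log2 fold changes over temperatures) is given: synchronized HeLa Kyoto cells, proteins quantified by TMT10plex mass spectrometry, three biological replicates, mitosis taken 0.5 h after nocodazole release, G1/S directly after double thymidine block.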

Sequence of MMTAG2 (chain, as listed by the source): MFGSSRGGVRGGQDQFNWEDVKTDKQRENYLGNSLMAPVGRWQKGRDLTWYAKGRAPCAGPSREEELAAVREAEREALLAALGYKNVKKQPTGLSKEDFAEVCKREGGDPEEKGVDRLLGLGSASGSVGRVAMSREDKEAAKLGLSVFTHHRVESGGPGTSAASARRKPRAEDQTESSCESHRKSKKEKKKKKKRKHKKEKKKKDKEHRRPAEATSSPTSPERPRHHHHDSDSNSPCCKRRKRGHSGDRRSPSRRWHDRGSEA

Take “MMQGEAHPSASLIDRTIKMRKETEARKVVLAWGLLNVSMAGMIYTEMTGKLISSYYNVTYWPLWYIELALASLFSLNALFDFWRYFKYTVAPTSLVVSPGQQTLLGLKTAVVQTTPPHDLAATQIPPAPPSPSIQGQSVLSYSPSRSPSTSPKFTTSCMTGYSPQLQGLSSGGSGSYSPGVTYSPVSGYNKLASFSPSPPSPYPTTVGPVESSGLRSRYRSSPTVYNSPTDKEDYMTDLRTLDTFLRSEEEKQHRVKLGSPDSTSPSSSPTFWNYSRSMGDYAQTLKKFQYQLACRSQAPCANKDEADLSSKQAAEEVWARVAMNRQLLDHMDSWTAKFRNWINETILVPLVQEIESVSTQMRRMGCPELQIGEASITSLKQAALVKAPLIPTLNTIVQYLDLTPNQEYLFERIKELSQGGCMSSFRWNRGGDFKGRKWDTDLPTDSAIIMHVFCTYLDSRLPPHPKYPDGKTFTSQHFVQTPNKPDVTNENVFCIYQSAINPPHYELIYQRHVYNLPKGRNNMFHTLLMFLYIIKTKESGMLGRVNLGLSGVNILWIFGE [TMEM209]”: in data set [1], the “solubility in G1/S (log2)” value came out at 0.161. Also, the results for the melting temperature in data set [2] (cell cycle stage: G1/S) and in data set [2] (cell cycle stage: mitosis) were 52 °C and 53.2 °C, respectively. Besides, the “solubility change mitosis (log2)” value in data set [3] is -0.145. Moreover, the thermal stability score in data set [4] (setting [5]) is 0.688; in data set [4] (cell cycle stage: mitosis), 3.82.
As for “MMSDASDMLAAALEQMDGIIAGSKALEYSNGIFDCQSPTSPFMGSLRALHLVEDLRGLLEMMETDEKEGLRCQIPDSTAETLVEWLQSQMTNGHLPGNGDVYQERLARLENDKESLVLQVSVLTDQVEAQGEKIRDLEFCLEEHREKVNATEEMLQQELLSRTSLETQKLDLMAEISNLKLKLTAVEKDRLDYEDKFRDTEGLIQEINDLRLKVSEMDSERLQYEKKLKSTKSLMAKLSSMKIKVGQMQYEKQRMEQKWESLKDELASLKEQLEEKESEVKRLQEKLVCKMKGEGVEIVDRDIEVQKMKKAVESLMAANEEKDRKIEDLRQCLNRYKKMQDTVVLAQGKDGEYEELLNSSSISSLLDAQGFSDLEKSPSPTPVMGSPSCDPFNTSVPEEFHTTILQVSIPSLLPATVSMETSEKSKLTPKPETSFEENDGNIILGATVDTQLCDKLLTSSLQKSSSLGNLKKETSDGEKETIQKTSEDRAPAESRPFGTLPPRPPGQDTSMDDNPFGTRKVRSSFGRGFFKIKSNKRTASAPNLAETEKETAEHLDLAGASSRPKDSQRNSPFQIPPPSPDSKKKSRGIMKLFGKLRRSQSTTFNPDDMSEPEFKRGGTRATAGPRLGWSRDLGQSNSDLDMPFAKWTKEQVCNWLMEQGLGSYLNSGKHWIASGQTLLQASQQDLEKELGIKHSLHRKKLQLALQALGSEEETNHGKLDFNWVTRWLDDIGLPQYKTQFDEGRVDGRMLHYMTVDDLLSLKVVSVLHHLSIKRAIQVLRINNFEPNCLRRRPSDENTIAPSEVQKWTNHRVMEWLRSVDLAEYAPNLRGSGVHGGLMVLEPRFNVETMAQLLNIPPNKTLLRRHLATHFNLLIGAEAQHQKRDAMELPDYVLLTATAKVKPKKLAFSNFGNLRKKKQEDGEEYVCPMELGQASGSASKKGFKPGLDMRLYEEDDLDRLEQMEDSEGTVRQIGAFSEGINNLTHMLKEDDMFKDFAARSPSASITDEDSNV [PPFIBP1]”, the “solubility in G1/S (log2)” value in data set [1] came out at 0.425. Moreover, the melting temperature in data set [2] (cell cycle stage: G1/S) was determined as 49.4 °C; in data set [2] (cell cycle stage: mitosis), 49 °C. Moreover, the “solubility change mitosis (log2)” value in data set [3] was -0.0985. In addition, the thermal stability score is 0.0729 in data set [4] (setting [5]) and 0.352 in data set [4] (cell cycle stage: mitosis).
On to “MMSQSSGSGDGNDDEATTSKDGGFSSPSPSAAAAAQEVRSATDGNTSTTPPTSAKKRKLNSSSSSSSNSSNEREDFDSTSSSSSTPPLQPRDSASPSTSSFCLGVSVAASSHVPIQKKLRFEDTLEFVGFDAKMAEESSSSSSSSSPTAATSQQQQLKNKSILISSVASVHHANGLAKSSTTVSSFANSKPGSAKKLVIKNFKDKPKLPENYTDETWQKLKEAVEAIQNSTSIKYNLEELYQAVENLCSYKISANLYKQLRQICEDHIKAQIHQFREDSLDSVLFLKKIDRCWQNHCRQMIMIRSIFLFLDRTYVLQNSMLPSIWDMGLELFRAHIISDQKVQNKTIDGILLLIERERNGEAIDRSLLRSLLSMLSDLQIYQDSFEQRFLEETNRLYAAEGQKLMQEREVPEYLHHVNKRLEEEADRLITYLDQTTQKSLIATVEKQLLGEHLTAILQKGLNNLLDENRIQDLSLLYQLFSRVRGGVQVLLQQWIEYIKAFGSTIVINPEKDKTMVQELLDFKDKVDHIIDICFLKNEKFINAMKEAFETFINKRPNKPAELIAKYVDSKLRAGNKEATDEELEKMLDKIMIIFRFIYGKDVFEAFYKKDLAKRLLVGKSASVDAEKSMLSKLKHECGAAFTSKLEGMFKDMELSKDIMIQFKQYMQNQNVPGNIELTVNILTMGYWPTYVPMEVHLPPEMVKLQEIFKTFYLGKHSGRKLQWQSTLGHCVLKAEFKEGKKELQVSLFQTLVLLMFNEGEEFSLEEIKQATGIEDGELRRTLQSLACGKARVLAKNPKGKDIEDGDKFICNDDFKHKLFRIKINQIQMKETVEEQASTTERVFQDRQYQIDAAIVRIMKMRKTLSHNLLVSEVYNQLKFPVKPADLKKRIESLIDRDYMERDKENPNQYNYIA [CUL4B]”, for which the “solubility in G1/S (log2)” value in data set [1] is 0.0519. In addition, the melting temperature amounted to 54.6 °C in data set [2] (cell cycle stage: G1/S) and 54.4 °C in data set [2] (cell cycle stage: mitosis). The “solubility change mitosis (log2)” value in data set [3] is -0.261. The thermal stability score in data set [4] (setting [5]) was -1.29; in data set [4] (cell cycle stage: mitosis), -1.57.
For the substance MMTAG2, in data set [1], the “solubility in G1/S (log2)” value is -1.03. In addition, the melting temperature in data set [2] (cell cycle stage: G1/S) is 53 °C; in data set [2] (cell cycle stage: mitosis) it was 51.3 °C. For the same substance, the “solubility change mitosis (log2)” value in data set [3] stood at 0.48. For the same substance, the thermal stability score in data set [4] (setting [5]) was -3.08; in data set [4] (cell cycle stage: mitosis), -5.63.
As to “MMTSVGTNRARGNWEQPQNQNQTQHKQRPQATAEQIRLAQMISDHNDADFEEKVKQLIDITGKNQDECVIALHDCNGDVNRAINVLLEGNPDTHSWEMVGKKKGVSGQKDGGQTESNEEGKENRDRDRDYSRRRGGPPRRGRGASRGREFRGQENGLDGTKSGGPSGRGTERGRRGRGRGRGGSGRRGGRFSAQGMGTFNPADYAEPANTDDNYGNSSGNTWNNTGHFEPDDGTSAWRTATEEWGTEDWNEDLSETKIFTASNVSSVPLPAENVTITAGQRIDLAVLLGKTPSTMENDSSNLDPSQAPSLAQPLVFSNSKQTAISQPASGNTFSHHSMVSMLGKGFGDVGEAKGGSTTGSQFLEQFKTAQALAQLAAQHSQSGSTTTSSWDMGSTTQSPSLVQYDLKNPSDSAVHSPFTKRQAFTPSSTMMEVFLQEKSPAVATSTAAPPPPSSPLPSKSTSAPQMSPGSSDNQSSSPQPAQQKLKQQKKKASLTSKIPALAVEMPGSADISGLNLQFGALQFGSEPVLSDYESTPTTSASSSQAPSSLYTSTASESSSTISSNQSQESGYQSGPIQSTTYTSQNNAQGPLYEQRSTQTRRYPSSISSSPQKDLTQAKNGFSSVQATQLQTTQSVEGATGSAVKSDSPSTSSIPPLNETVSAASLLTTTNQHSSSLGGLSHSEEIPNTTTTQHSSTLSTQQNTLSSSTSSGRTSTSTLLHTSVESEANLHSSSSTFSTTSSTVSAPPPVVSVSSSLNSGSSLGLSLGSNSTVTASTRSSVATTSGKAPPNLPPGVPPLLPNPYIMAPGLLHAYPPQVYGYDDLQMLQTRFPLDYYSIPFPTPTTPLTGRDGSLASNPYSGDLTKFGRGDASSPAPATTLAQPQQNQTQTHHTTQQTFLNPALPPGYSYTSLPYYTGVPGLPSTFQYGPAVFPVAPTSSKQHGVNVSVNASATPFQQPSGYGSHGYNTGVSVTSSNTGVPDISGSVYSKTQQSFEKQGFHSGTPAASFNLPSALGSGGPINPATAAAYPPAPFMHILTPHQQPHSQILHHHLQQDGQTGSGQRSQTSSIPQKPQTNKSAYNSYSWGAN [UBAP2L]”, in data set [1], the “solubility in G1/S (log2)” value is -0.0783. Further, the figures for the melting temperature in data set [2] (cell cycle stage: G1/S) and in data set [2] (cell cycle stage: mitosis) were 55.5 °C and 54.2 °C, respectively. Besides, the “solubility change mitosis (log2)” value in data set [3] came out at 0.0243. Also, the values for the thermal stability score in data set [4] (setting [5]) and in data set [4] (cell cycle stage: mitosis) were -3.92 and -3.52, respectively.
On to “MMTSVSSDHCRGAREKPQISAAQSTQPQKQVVQATAEQMRLAQVIFDKNDSDFEAKVKQLMEVTGKNQDECIVALHDCNGDVNKAINILLEGNSDTTSWETVGCKKKNFAKENSENKENREKKSEKESSRGRGNNNRKGRGGNRGREFRGEENGIDCNQVDKPSDRGKRARGRGFGRGRGRGAGRFSTQGMGTFNPADYSDSTSTDVCGTKLVVWEAAQNGADEGTELASNTHNIAQDLSNKSSYGLKGAWKNSVEEWTTEDWTEDLSETKVFTASSAPAENHILPGQSIDLVALLQKPVPHSQASEANSFETSQQQGFGQALVFTNSQHNNQMAPGTGSSTAVNSCSPQSLSSVLGSGFGELAPPKMANITSSQILDQLKAPSLGQFTTTPSTQQNSTSHPTTTTSWDLKPPTSQSSVLSHLDFKSQPEPSPVLSQLSQRQQHQSQAVTVPPPGLESFPSQAKLRESTPGDSPSTVNKLLQLPSTTIENISVSVHQPQPKHIKLAKRRIPPASKIPASAVEMPGSADVTGLNVQFGALEFGSEPSLSEFGSAPSSENSNQIPISLYSKSLSEPLNTSLSMTSAVQNSTYTTSVITSCSLTSSSLNSASPVAMSSSYDQSSVHNRIPYQSPVSSSESAPGTIMNGHGGGRSQQTLDTPKTTGPPSALPSVSSLPSTTSCTALLPSTSQHTGDLTSSPLSQLSSSLSSHQSSLSAHAALSSSTSHTHASVESASSHQSSATFSTAATSVSSSASSGASLSSSMNTANSLCLGGTPASASSSSSRAAPLVTSGKAPPNLPQGVPPLLHNQYLVGPGGLLPAYPIYGYDELQMLQSRLPVDYYGIPFAAPTALASRDGSLANNPYPGDVTKFGRGDSASPAPATTPAQPQQSQSQTHHTAQQPFVNPALPPGYSYTGLPYYTGMPSAFQYGPTMFVPPASAKQHGVNLSTPTPPFQQASGYGQHGYSTGYDDLTQGTAAGDYSKGGYAGSSQAPNKSAGSGPGKGVSVSSSTTGLPDMTGSVYNKTQTFDKQGFHAGTPPPFSLPSVLGSTGPLASGAAPGYAPPPFLHILPAHQQPHSQLLHHHLPQDAQSGSGQRSQPSSLQPKSQASKPAYGNSPYWTN [UBAP2]”, for which the “solubility in G1/S (log2)” value in data set [1] came out at 0.0134. The melting temperature was determined as 57.3 °C in data set [2] (cell cycle stage: G1/S) and 56.8 °C in data set [2] (cell cycle stage: mitosis). The “solubility change mitosis (log2)” value in data set [3] is -0.0536. The values for the thermal stability score in data set [4] (setting [5]) and in data set [4] (cell cycle stage: mitosis) were -3.11 and -3.84, respectively.
Regarding “MNAAASSYPMASLYVGDLHSDVTEAMLYEKFSPAGPVLSIRVCRDMITRRSLGYAYVNFQQPADAERALDTMNFDVIKGKPIRIMWSQRDPSLRKSGVGNVFIKNLDKSIDNKALYDTFSAFGNILSCKVVCDENGSKGYAFVHFETQEAADKAIEKMNGMLLNDRKVFVGRFKSRKEREAELGAKAKEFTNVYIKNFGEEVDDESLKELFSQFGKTLSVKVMRDPNGKSKGFGFVSYEKHEDANKAVEEMNGKEISGKIIFVGRAQKKVERQAELKRKFEQLKQERISRYQGVNLYIKNLDDTIDDEKLRKEFSPFGSITSAKVMLEDGRSKGFGFVCFSSPEEATKAVTEMNGRIVGSKPLYVALAQRKEERKAHLTNQYMQRVAGMRALPANAILNQFQPAAGGYFVPAVPQAQGRPPYYTPNQLAQMRPNPRWQQGGRPQGFQGMPSAIRQSGPRPTLRHLAPTGSECPDRLAMDFGGAGAAQQGLTDSCQSGGVPTAVQNLAPRAAVAAAAPRAVAPYKYASSVRSPHPAIQPLQAPQPAVHVQGQEPLTASMLAAAPPQEQKQMLGERLFPLIQTMHSNLAGKITGMLLEIDNSELLHMLESPESLRSKVDEAVAVLQAHHAKKEAAQKVGAVAAATS [PABPC4]”, in data set [1], the “solubility in G1/S (log2)” value amounted to 0.0374. Moreover, the figures for the melting temperature in data set [2] (cell cycle stage: G1/S) and in data set [2] (cell cycle stage: mitosis) were 50.3 °C and 49.6 °C, respectively. The “solubility change mitosis (log2)” value in data set [3] came to 0.0456. For the same substance, the thermal stability score in data set [4] (setting [5]) was -1.92; in data set [4] (cell cycle stage: mitosis), -1.27.
